Data as given in patent US12458692B2, “Self-assembling peptide scaffold” (Hexamer Therapeutics, Inc., priority 2018, dated 2025).
Where no end group is shown, it is not given here.

Assay: Blue native PAGE of the peptide hydrated in 1×PBS (self-assembly)
Assay type: physicochemical
Details: dissolved in 1×PBS, 5 min at room temperature, Blue NativePAGE Bis-Tris gel
Method: The peptide (SEQ ID NO: 15) was synthesized by SPPS and lyophilized for storage. The peptide was dissolved in 1×PBS and then loaded onto a blue native PAGE gel and size fractionated by electrophoresis through a 4-16% acrylamide gradient gel for 90 min at 150 V (constant). The gel was fixed in methanol:acetic acid:water and then rinsed in the same solution to destain. Lane 1 is BSA as a reference protein, and Lane 2 is the self-assembled hexamer. MW standards (which are not shown) are on the right. BSA is 66 kDa and the hexamer has an expected size of 20.7 kDa.
Experiments were performed to confirm that a hexamer forms following hydration of the monomer, elucidate the solubility of epitope coupled hexamers, determine the maximum density of epitope coupling, and confirm that a hexameric structure is maintained following coupling of the epitope. A representative peptide, SEQ ID NO: 15, was synthesized using the protocols previously described. A methionine and aspartic acid residue were placed on the N-terminus, and the methionine residue was protected by acetylation to form Acetyl-MD-(SEQ ID NO: 15). Following SPPS, the peptide was lyophilized for storage. To show self-assembly, the peptide was dissolved in 1×PBS buffer, incubated at room temperature for 5 min, and loaded onto a Blue NativePAGE Novex Bis-Tris Gel using the system purchased from Life Technologies. […]

For “LRSIGKDLRSIGRDLRSIGKDLRSIGRD (Ac-MDLRSIGKDLRSIGRDLRSIGKDLRSIGRD; also: hexamer) [Acetyl-MD-(SEQ ID NO: 15), Representative self-assembling peptide made by SPPS; forms the hexamer on hydration]”, the “higher order structures or aggregates” value was “no detectable higher order structures or aggregates” and the “oligomeric state after hydration (self-assembly)” value (expected hexamer size 20.7 kDa) was “self-assembly of the hexamer”.
